Data as given in US7666414B2.

Molecular target: prostate specific membrane antigen (PSMA) on LNCaP cells (human) (UniProt Q04609)

irrelevant IgG antibody
tumor uptake of the 131I-labelled antibody in nude mice bearing LNCaP tumors, one day post injection (% injected dose/gram) (% injected dose/gram): 4.41
